The text below walks through data of patent US20130137631A1.

In the experiment the target is T1, human GIP receptor (human), P48546.
T1 chain: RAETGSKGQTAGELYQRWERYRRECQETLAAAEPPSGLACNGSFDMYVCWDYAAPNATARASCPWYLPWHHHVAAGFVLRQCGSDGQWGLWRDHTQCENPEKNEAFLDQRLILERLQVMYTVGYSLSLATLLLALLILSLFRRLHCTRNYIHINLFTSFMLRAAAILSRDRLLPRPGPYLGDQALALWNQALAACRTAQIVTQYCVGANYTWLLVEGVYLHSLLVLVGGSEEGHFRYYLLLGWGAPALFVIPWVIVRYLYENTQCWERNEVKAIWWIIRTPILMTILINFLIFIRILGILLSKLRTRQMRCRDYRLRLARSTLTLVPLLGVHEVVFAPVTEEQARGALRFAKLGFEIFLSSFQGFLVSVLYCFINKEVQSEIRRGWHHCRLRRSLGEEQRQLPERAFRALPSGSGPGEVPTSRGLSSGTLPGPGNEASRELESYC
Description: 125I-GIP displacement, HEK-GIPR membranes.
YAEGTFISDYSIALDKIAQQEFVNWLLAQKPSSGAPPKSK (modifications not checked) [0601GIP5097]: the % Inh 10 nM is 101%.
In turn, YAEGTFISDYSIALEKIRQQEFVNWLLAQKPSSGAPPNSK (modifications not checked) [0601GIP5098] returned a % Inh 10 nM of 97%.
As for HAEGTFISDYSIAMDKIHQQDFVNWLLAQKPKKIRYS (modifications not checked) [0601GIP4838], the % Inh 10 nM was 34.3%.
YAEGTFISDYSIAMDKIHQQDFVNWLLAQKPNKIRYS (modifications not checked) [0601GIP4851]: the % Inh 10 nM came to 87%.
Still for that read-out and setting: the value for YAEGTFISDYSIAMDKIHQQDFVNQLLAQKPKKIRYS (modifications not checked) [0601GIP4845] was 69.5%.
For orientation: IC50 means the concentration needed to halve the response being measured. The molecule YAEGTFISDYSIAMDKIHQQDFVNWLLAQKPQQIRYS (modifications not checked) [0601GIP4855] came in with a % Inh 10 nM of 78.8% and an IC50 of 0.72 nM.
In turn, YAEGTFISDYSIAMDKIHQQDFVNWLLAQKPQKIRYS (modifications not checked) [0601GIP4853] registered a % Inh 10 nM of 91%.
Same read-out and setting: to YAEGTFISDYSIAMDKIHQQDFVNWLLAQKPKNIRYS (modifications not checked) [0601GIP4852] belongs 90%.
As for YAEGTFISDYSIAMDKIHQQDFVQWLLAQKPKKIRYS (modifications not checked) [0601GIP4865 (row r89, Gln24)], the % Inh 10 nM worked out at 85.6%.
Molecule YAEGTFISDYSIAMDKIHQQDFVNWLLAQKPKKQRYS (modifications not checked) [0601GIP4914] gave a % Inh 10 nM of 96.3%.
The molecule YAEGTFISDYSIAMDKIHQQDFVNWLLAQKPKQIRYS (modifications not checked) [0601GIP4854] yielded a % Inh 10 nM of 93.5%.
Regarding YAEGTFISDYSIAMDKIHQQDFVNWLLAQKPKKARYS (modifications not checked) [0601GIP4856], the % Inh 10 nM turned out to be 83.7%.
Still for that read-out and setting: to YAEGTFISDYSIAMDKIHQQDFVNWLLAQKPKKIQYS (modifications not checked) [0601GIP4913] belongs 92.1%.
